{"source": "paper PMC10833561", "note": "Where two headings read alike, the source gives them in different places."}
{"substance": "SIVmac239 Env (envelope glycoprotein, gp120): S204G (in SIVmac239 K180S)", "values": [{"measurement": "expression_or_secretion", "setting": "N-glycosylation at N202", "result": "no change"}, {"measurement": "other", "setting": "N-glycosylation at N202", "result": "decreases"}]}
{"substance": "SIVmac239 Env (envelope glycoprotein, gp120 V2 apex): T173I (in SIVmac239 K180S)", "values": [{"measurement": "expression_or_secretion", "setting": "N-glycosylation at N171", "result": "no change"}, {"measurement": "other", "setting": "N-glycosylation at N171", "result": "abolishes"}]}
